Test results as given in patent US20250011456A1, “ANTIBODIES AGAINST CD14 AND USES THEREOF” (Villanelle Life Science Inc, priority 2023, published 2025).
Where “and” joins values, the source holds several entries; their conditions need not be identical. Equal entries are not always repeated.

Experiments:
[1] = test system: CD14 positive recurrent bladder cancer patient-derived xenograft (PDX); assay: Amount of anti-CD14-IgG1 (5-40 mg/kg) for tumor treatment in PDX mice (tumor length, width, volume, tumor weight; Example 7); assay type: in vivo; conditions: anti-CD14-IgG1 15 mg/kg to 40 mg/kg; 28 days
Description: After removing the primary tumor tissue from the patient, the tissue was temporarily placed in a complete culture medium containing RPMI1640 (Gibco Roswell Park Memorial Institute 1640 Media)+PS (penicillin and streptomycin)+10% FBS (Fetal bovine serum). The tissue was then transported to a sterile operating room within an SPF-grade (Specific Pathogen Free) animal facility. The tumor tissue was cut to an appropriate size (5 millimeters (mm) in diameter). Severely immunodeficient NSG (NOD scid gamma mouse) mice were anesthetized using an isoflurane respirator. The tumor was transplanted subcutaneously into the right rib area through surgery. When the tumor volume reached 1 cm^3, it was passaged following the same procedure, and after expanding for three generations, the tumor became stable for use in formal experiments. During the experiment, passaging and expansion were performed as needed. When the tumor volume reached 100 mm^3, the mice were divided into groups according to the experimental requirements and treated with drugs.
(§1) To evaluate concentrations for the anti-CD14-IgG1 antibody, PDX mice were treated with five different concentrations of the IgG1 antibody over a period of 28 days. For these experiments, drug administration on the PDX mice was performed intravenously on alternating 4 days and 3 days.
(§2) The five different concentrations of the anti-CD14-IgG1 antibody tested include 5 mg/kg, 10 mg/kg, 15 mg/kg, 25 mg/kg, and 40 mg/kg. A control regimen was utilized as a comparative example. […] The non-specific IgG1 has no binding affinity to antigen. […] Tumor weight and tumor volume were calculated as described above.

[2] = Mouse weight under anti-CD14-IgG1 dosages of Example 7 (PDX mice); assay type: in vivo
Method: as §1, §2

B1: D6DD3D001: mouse-derived anti-CD14 IgG1 antibody; VH SEQ ID NO: 1, VL SEQ ID NO: 3, heavy chain SEQ ID NO: 2, light chain SEQ ID NO: 4 (antibody)
heavy: DVQLQQSGPGLVKPSQSLSLTCTVTGYSITSDSAWNWIRQFPGNRLEWMGYISYSGSTSYNPSLKSRISITRDTSKNQFFLQLNSVTTEDTATYYCVRGLRFAYWGQGTLVTVSSPSVFLFPPKPKDTLMISRTPEVTCVVVDVSHEDPEVKFNWYVDGVEVHNAKTKPREEQYNSTYRVVSVLTVLHQDWLNGKEYKCKVSNKALPAPIEKTISKAKGQPREPQVYTLPPSREEMTKNQVSLTCLVKGFYPSDIAVEWESNGQPENNYKTTPPVLDSDGSFFLYSKLTVDKSRWQQGNVFSCSVMHEALHNHYTQKSLSLSPGK
light: DIVLTQSPASLAVSLGQRATISCRASESVDSYVNSFLHWYQQKPGQPPKLLIYRASNLQSGIPARFSGSGSRTDFTLTINPVEADDVATYYCQQSNEDPYTFGGGTKLEIKRTVAAPSVFIFPPSDEQLKSGTASVVCLLNNFYPREAKVQWKVDNALQSGNSQESVTEQDSKDSTYSLSSTLTLSKADYEKHKVYACEVTHQGLSSPVTKSFNRGEC
Question: With B1 as the molecule, how does the “tumor inhibition rate versus dosage” value [1] read?
Answer: tumor inhibition rate remaining the same across the three groups

Question: And the “Mouse Weight” value ([2]; Day 0, IgG1 (10 mg/kg), per mouse 1-5, 10 mg/kg)?
Answer: 19.83 g and 20.73 g and 20.13 g and 20.77 g and 19.27 g

Question: What about the “Mouse Weight” value ([2]; Day 0, IgG1 (15 mg/kg), per mouse 1-5, 15 mg/kg) of the same molecule?
Answer: 20.37 g and 19.02 g and 20.34 g and 19.62 g and 19.24 g

Question: And the “Mouse Weight” value ([2]; Day 0, IgG1 (25 mg/kg), per mouse 1-5, 25 mg/kg)?
Answer: 19.63 g and 20.3 g and 19.71 g and 20.07 g and 20.02 g

Question: What about the “Mouse Weight” value ([2]; Day 4, IgG1 (5 mg/kg), per mouse 1-5, 5 mg/kg) of the same molecule?
Answer: 20.33 g and 20.63 g and 19.58 g and 19.86 g and 20.45 g

Question: And the “Mouse Weight” value ([2]; Day 4, IgG1 (10 mg/kg), per mouse 1-5, 10 mg/kg)?
Answer: 19.89 g and 20.39 g and 19.36 g and 20.74 g and 20.98 g

Question: And the “Mouse Weight” value ([2]; Day 4, IgG1 (15 mg/kg), per mouse 1-5, 15 mg/kg)?
Answer: 20.83 g and 19.54 g and 20.87 g and 20.44 g and 20.68 g

Question: And the “Mouse Weight” value ([2]; Day 4, IgG1 (25 mg/kg), per mouse 1-5, 25 mg/kg)?
Answer: 20.75 g and 19.2 g and 20.99 g and 20.16 g and 20.55 g

Question: What about the “Mouse Weight” value ([2]; Day 7, IgG1 (5 mg/kg), per mouse 1-5, 5 mg/kg) of the same molecule?
Answer: 20.95 g and 20.07 g and 20.36 g and 20.83 g and 20.56 g

Question: What about the “Mouse Weight” value ([2]; Day 7, IgG1 (10 mg/kg), per mouse 1-5, 10 mg/kg) of the same molecule?
Answer: 20.81 g and 19.35 g and 19.89 g and 20.23 g and 21.08 g

Question: And the “Mouse Weight” value ([2]; Day 7, IgG1 (15 mg/kg), per mouse 1-5, 15 mg/kg)?
Answer: 19.65 g and 20.62 g and 20.38 g and 20.56 g and 20.71 g

Question: And the “Mouse Weight” value ([2]; Day 7, IgG1 (25 mg/kg), per mouse 1-5, 25 mg/kg)?
Answer: 20.86 g and 20.2 g and 20.76 g and 21.38 g and 20.06 g

Question: What about the “Mouse Weight” value ([2]; Day 11, IgG1 (5 mg/kg), per mouse 1-5, 5 mg/kg) of the same molecule?
Answer: 20.85 g and 20.72 g and 20.22 g and 21.21 g and 20.94 g

Question: And the “Mouse Weight” value ([2]; Day 11, IgG1 (10 mg/kg), per mouse 1-5, 10 mg/kg)?
Answer: 20.77 g and 20.5 g and 20.97 g and 21.03 g and 20.94 g

Question: What about the “Mouse Weight” value ([2]; Day 11, IgG1 (15 mg/kg), per mouse 1-5, 15 mg/kg) of the same molecule?
Answer: 20.35 g and 20.89 g and 21.32 g and 21.08 g and 20.47 g

Question: What about the “Mouse Weight” value ([2]; Day 11, IgG1 (25 mg/kg), per mouse 1-5, 25 mg/kg) of the same molecule?
Answer: 20.11 g and 20.4 g and 19.5 g and 20.84 g and 21.5 g

Question: What about the “Mouse Weight” value ([2]; Day 14, IgG1 (5 mg/kg), per mouse 1-5, 5 mg/kg) of the same molecule?
Answer: 20.75 g and 21.06 g and 20.89 g and 21.69 g and 20.67 g

Question: What about the “Mouse Weight” value ([2]; Day 14, IgG1 (10 mg/kg), per mouse 1-5, 10 mg/kg) of the same molecule?
Answer: 20.15 g and 20.69 g and 21.19 g and 21.53 g and 20.71 g

Question: What about the “Mouse Weight” value ([2]; Day 14, IgG1 (15 mg/kg), per mouse 1-5, 15 mg/kg) of the same molecule?
Answer: 20.47 g and 21.16 g and 21.65 g and 20.87 g and 21.13 g

Question: What about the “Mouse Weight” value ([2]; Day 14, IgG1 (25 mg/kg), per mouse 1-5, 25 mg/kg) of the same molecule?
Answer: 20.13 g and 21.05 g and 20.39 g and 21.39 g and 21.62 g

Question: And the “Mouse Weight” value ([2]; Day 18, IgG1 (5 mg/kg), per mouse 1-5, 5 mg/kg)?
Answer: 21.11 g and 21.36 g and 20.44 g and 20.69 g and 21.33 g

Question: And the “Mouse Weight” value ([2]; Day 18, IgG1 (10 mg/kg), per mouse 1-5, 10 mg/kg)?
Answer: 21.27 g and 20.66 g and 21.04 g and 20.85 g and 21.37 g

Question: And the “Mouse Weight” value ([2]; Day 18, IgG1 (15 mg/kg), per mouse 1-5, 15 mg/kg)?
Answer: 20.73 g and 21.69 g and 20.31 g and 20.9 g and 21.29 g

Question: And the “Mouse Weight” value ([2]; Day 18, IgG1 (25 mg/kg), per mouse 1-5, 25 mg/kg)?
Answer: 21.14 g and 21.03 g and 20.46 g and 21.57 g and 21.77 g

Question: What about the “Mouse Weight” value ([2]; Day 21, IgG1 (5 mg/kg), per mouse 1-5, 5 mg/kg) of the same molecule?
Answer: 20.92 g and 21.85 g and 21.42 g and 21.87 g and 21.66 g

Question: And the “Mouse Weight” value ([2]; Day 21, IgG1 (10 mg/kg), per mouse 1-5, 10 mg/kg)?
Answer: 21.25 g and 21.16 g and 20.97 g and 21.13 g and 21.28 g

Question: What about the “Mouse Weight” value ([2]; Day 21, IgG1 (15 mg/kg), per mouse 1-5, 15 mg/kg) of the same molecule?
Answer: 20.6 g and 21.12 g and 21.33 g and 20.4 g and 21.98 g

Question: And the “Mouse Weight” value ([2]; Day 21, IgG1 (25 mg/kg), per mouse 1-5, 25 mg/kg)?
Answer: 21.3 g and 22.05 g and 21.54 g and 20.62 g and 21.57 g

Question: What about the “Mouse Weight” value ([2]; Day 25, IgG1 (5 mg/kg), per mouse 1-5, 5 mg/kg) of the same molecule?
Answer: 22.45 g and 21.06 g and 21.98 g and 22.14 g and 22.16 g

Question: What about the “Mouse Weight” value ([2]; Day 25, IgG1 (10 mg/kg), per mouse 1-5, 10 mg/kg) of the same molecule?
Answer: 22.27 g and 22.35 g and 21.64 g and 20.37 g and 22.93 g

Question: What about the “Mouse Weight” value ([2]; Day 25, IgG1 (15 mg/kg), per mouse 1-5, 15 mg/kg) of the same molecule?
Answer: 22.28 g and 21.01 g and 22.42 g and 20.52 g and 22.73 g

Question: What about the “Mouse Weight” value ([2]; Day 25, IgG1 (25 mg/kg), per mouse 1-5, 25 mg/kg) of the same molecule?
Answer: 22.17 g and 21.73 g and 22.39 g and 21.5 g and 20.56 g

Question: What about the “Mouse Weight” value ([2]; Day 28, IgG1 (5 mg/kg), per mouse 1-5, 5 mg/kg) of the same molecule?
Answer: 22.42 g and 23.8 g and 22.04 g and 21.81 g and 21.72 g

Question: What about the “Mouse Weight” value ([2]; Day 28, IgG1 (10 mg/kg), per mouse 1-5, 10 mg/kg) of the same molecule?
Answer: 22.71 g and 23.8 g and 21.44 g and 22.24 g and 21.16 g

Question: What about the “Mouse Weight” value ([2]; Day 28, IgG1 (15 mg/kg), per mouse 1-5, 15 mg/kg) of the same molecule?
Answer: 22.57 g and 21.49 g and 23.11 g and 21.72 g and 23.44 g

Question: And the “Mouse Weight” value ([2]; Day 28, IgG1 (25 mg/kg), per mouse 1-5, 25 mg/kg)?
Answer: 22.62 g and 23.62 g and 22.69 g and 21.64 g and 23.4 g

Question: What about the “Mouse Weight” value ([2]; IgG1 40 mg/kg group, Day 0, individual mice 1-5, 40 mg/kg) of the same molecule?
Answer: 20.64 g and 20.79 g and 20.06 g and 20.43 g and 19.66 g

Question: What about the “Mouse Weight” value ([2]; IgG1 40 mg/kg group, Day 4, individual mice 1-5, 40 mg/kg) of the same molecule?
Answer: 20.37 g and 20.71 g and 19.79 g and 20.56 g and 20.73 g

Question: What about the “Mouse Weight” value ([2]; IgG1 40 mg/kg group, Day 7, individual mice 1-5, 40 mg/kg) of the same molecule?
Answer: 20.29 g and 20.01 g and 20.53 g and 21.04 g and 20.66 g

Question: And the “Mouse Weight” value ([2]; IgG1 40 mg/kg group, Day 11, individual mice 1-5, 40 mg/kg)?
Answer: 20.49 g and 21.74 g and 20.21 g and 21.3 g and 20.92 g

Question: And the “Mouse Weight” value ([2]; IgG1 40 mg/kg group, Day 14, individual mice 1-5, 40 mg/kg)?
Answer: 21.19 g and 20.75 g and 20.83 g and 20.91 g and 20.61 g

Question: And the “Mouse Weight” value ([2]; IgG1 40 mg/kg group, Day 18, individual mice 1-5, 40 mg/kg)?
Answer: 21.32 g and 21.28 g and 21.36 g and 20.36 g and 21.14 g

Question: And the “Mouse Weight” value ([2]; IgG1 40 mg/kg group, Day 21, individual mice 1-5, 40 mg/kg)?
Answer: 21.75 g and 20.47 g and 21.5 g and 21.64 g and 21.77 g

Question: What about the “Mouse Weight” value ([2]; IgG1 40 mg/kg group, Day 25, individual mice 1-5, 40 mg/kg) of the same molecule?
Answer: 22.33 g and 21.23 g and 22.07 g and 21.9 g and 22.06 g

Question: What about the “Mouse Weight” value ([2]; IgG1 40 mg/kg group, Day 28, individual mice 1-5, 40 mg/kg) of the same molecule?
Answer: 23.59 g and 23.7 g and 22.4 g and 21.39 g and 22.91 g
